Measured values: patent publication US20180201649A1 (YALE UNIVERSITY, published 2018)

Target: T1, endothelial nitric oxide synthase (eNOS) (bovine (endogenous in BAEC), UniProt P29473 2-1205)
T1 sequence (looked up): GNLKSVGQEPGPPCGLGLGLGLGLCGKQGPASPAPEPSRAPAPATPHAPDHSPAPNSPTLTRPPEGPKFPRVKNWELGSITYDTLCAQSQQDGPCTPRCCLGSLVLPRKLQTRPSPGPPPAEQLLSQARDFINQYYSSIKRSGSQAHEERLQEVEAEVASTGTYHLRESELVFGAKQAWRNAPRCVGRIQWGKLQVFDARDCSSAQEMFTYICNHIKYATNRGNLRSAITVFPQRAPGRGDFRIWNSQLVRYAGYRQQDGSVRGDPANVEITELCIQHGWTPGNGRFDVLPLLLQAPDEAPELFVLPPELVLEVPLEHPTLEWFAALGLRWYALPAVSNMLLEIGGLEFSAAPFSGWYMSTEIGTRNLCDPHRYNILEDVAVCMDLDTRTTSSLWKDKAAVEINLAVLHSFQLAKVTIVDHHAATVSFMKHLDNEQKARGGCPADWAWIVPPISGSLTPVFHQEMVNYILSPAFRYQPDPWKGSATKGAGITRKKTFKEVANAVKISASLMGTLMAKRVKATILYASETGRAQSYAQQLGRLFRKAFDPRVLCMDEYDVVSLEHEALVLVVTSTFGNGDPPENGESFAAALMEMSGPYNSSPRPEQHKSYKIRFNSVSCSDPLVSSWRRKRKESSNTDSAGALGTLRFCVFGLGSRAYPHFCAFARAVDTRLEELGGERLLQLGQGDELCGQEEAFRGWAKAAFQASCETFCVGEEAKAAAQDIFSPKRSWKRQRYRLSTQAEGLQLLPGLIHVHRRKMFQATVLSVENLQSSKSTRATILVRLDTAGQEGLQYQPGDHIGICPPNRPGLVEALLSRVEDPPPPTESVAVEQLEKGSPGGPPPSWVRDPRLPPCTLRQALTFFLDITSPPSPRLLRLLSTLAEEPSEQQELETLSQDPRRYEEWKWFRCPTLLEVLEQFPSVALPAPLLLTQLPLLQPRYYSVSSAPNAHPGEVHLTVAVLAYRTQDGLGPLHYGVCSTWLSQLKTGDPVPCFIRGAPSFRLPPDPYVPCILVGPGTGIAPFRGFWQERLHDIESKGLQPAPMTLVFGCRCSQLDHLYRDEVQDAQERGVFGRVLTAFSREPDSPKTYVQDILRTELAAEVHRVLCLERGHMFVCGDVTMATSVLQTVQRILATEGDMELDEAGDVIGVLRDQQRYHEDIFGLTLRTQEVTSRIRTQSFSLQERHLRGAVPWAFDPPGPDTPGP
Test: cell-based or functional assay

Binder | EC50 of inhibition of VEGF-induced NO release in BAEC
RQIKIWFQNRRMKWKKDGIWKASFTTFTVTKYWFYR [AP-Cav] | 1.8 µM
RRPPRDGIWKASFTTFTVTKYWFYR [Endo5-Cav] | 7.5 µM
